Here are results for two molecules from paper PMC6010752, “Development of GMP‐1 a molecular chaperone network modulator protecting mitochondrial function and its assessment in fly and mice models of Alzheimer's disease” (Journal of Cellular and Molecular Medicine, 2018).

For assay [1], the target named is T1, Tom34 (Homo sapiens, UniProt Q15785).
T1 construct: gene TOMM34; full-length (Gst-tag-free)
T1 sequence (Q15785 1-309): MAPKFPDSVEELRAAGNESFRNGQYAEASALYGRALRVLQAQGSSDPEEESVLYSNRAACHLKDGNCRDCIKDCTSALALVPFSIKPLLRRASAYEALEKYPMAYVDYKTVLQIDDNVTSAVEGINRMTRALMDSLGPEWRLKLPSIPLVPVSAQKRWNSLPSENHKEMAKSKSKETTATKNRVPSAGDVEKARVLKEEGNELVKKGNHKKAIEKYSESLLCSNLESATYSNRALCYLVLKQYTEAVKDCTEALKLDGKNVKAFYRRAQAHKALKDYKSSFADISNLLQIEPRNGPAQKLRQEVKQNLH
Kind of assay: dot-blot competition of Hsp90 C-terminal peptide-HRP (C90-HRP) with purified protein. In kind it is binding.

The next assay concerns the target T2, Tom70 (Homo sapiens, UniProt O94826).
T2 construct: gene TOMM70; cytoplasm-exposed domain of Tom70, amino acids 65-608 (Gst-tag-free)
T2 sequence (O94826 65-608): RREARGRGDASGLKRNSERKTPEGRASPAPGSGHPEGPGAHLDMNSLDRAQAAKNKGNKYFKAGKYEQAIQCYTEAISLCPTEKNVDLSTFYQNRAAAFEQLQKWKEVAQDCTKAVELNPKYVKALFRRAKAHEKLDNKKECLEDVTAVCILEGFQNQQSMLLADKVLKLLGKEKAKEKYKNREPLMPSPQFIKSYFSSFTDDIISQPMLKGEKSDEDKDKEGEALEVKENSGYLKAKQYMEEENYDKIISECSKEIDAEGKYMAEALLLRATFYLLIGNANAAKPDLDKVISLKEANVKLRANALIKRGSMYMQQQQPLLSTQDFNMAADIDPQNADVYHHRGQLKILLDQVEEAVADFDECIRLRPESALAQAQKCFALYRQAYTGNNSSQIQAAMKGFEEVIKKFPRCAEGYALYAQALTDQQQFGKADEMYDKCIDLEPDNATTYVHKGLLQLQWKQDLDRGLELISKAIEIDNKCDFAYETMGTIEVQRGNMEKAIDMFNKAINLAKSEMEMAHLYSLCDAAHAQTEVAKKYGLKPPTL
The description is as above. It counts as binding.

In assay [2] the target is T3, FKBP51 (Homo sapiens, UniProt Q13451).
T3 construct: gene FKBP5; full-length (Gst-tag-free)
T3 sequence (Q13451 1-457): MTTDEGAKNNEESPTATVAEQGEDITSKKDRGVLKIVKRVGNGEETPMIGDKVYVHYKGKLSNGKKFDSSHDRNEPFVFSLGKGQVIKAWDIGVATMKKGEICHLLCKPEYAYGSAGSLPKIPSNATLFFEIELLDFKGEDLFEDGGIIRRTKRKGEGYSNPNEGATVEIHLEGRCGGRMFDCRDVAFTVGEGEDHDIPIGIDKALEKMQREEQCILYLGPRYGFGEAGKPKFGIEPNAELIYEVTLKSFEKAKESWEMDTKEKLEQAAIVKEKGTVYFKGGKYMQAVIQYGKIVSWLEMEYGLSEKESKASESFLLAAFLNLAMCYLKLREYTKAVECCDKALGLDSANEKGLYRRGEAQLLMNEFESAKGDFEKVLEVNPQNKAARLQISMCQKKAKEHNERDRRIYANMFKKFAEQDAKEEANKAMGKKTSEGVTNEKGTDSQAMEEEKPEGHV
The assay is described as above. In kind it is binding.

The target of assay [3] is T4, Tom70, cytoplasm‐exposed domain, amino acids 65‐608 (human, UniProt O94826 65-608).
T4 construct: Tom70, human, mitochondrial import receptor, cytoplasm‐exposed domain, amino acids 65‐608; Cloned into a pGEX6 vector; cDNA from the IMAGE consortium; also called human Tom70 protein; source: E. coli BL21, purified (Gst‐trap 4B), Gst removed with PreScission protease
T4 sequence (looked up): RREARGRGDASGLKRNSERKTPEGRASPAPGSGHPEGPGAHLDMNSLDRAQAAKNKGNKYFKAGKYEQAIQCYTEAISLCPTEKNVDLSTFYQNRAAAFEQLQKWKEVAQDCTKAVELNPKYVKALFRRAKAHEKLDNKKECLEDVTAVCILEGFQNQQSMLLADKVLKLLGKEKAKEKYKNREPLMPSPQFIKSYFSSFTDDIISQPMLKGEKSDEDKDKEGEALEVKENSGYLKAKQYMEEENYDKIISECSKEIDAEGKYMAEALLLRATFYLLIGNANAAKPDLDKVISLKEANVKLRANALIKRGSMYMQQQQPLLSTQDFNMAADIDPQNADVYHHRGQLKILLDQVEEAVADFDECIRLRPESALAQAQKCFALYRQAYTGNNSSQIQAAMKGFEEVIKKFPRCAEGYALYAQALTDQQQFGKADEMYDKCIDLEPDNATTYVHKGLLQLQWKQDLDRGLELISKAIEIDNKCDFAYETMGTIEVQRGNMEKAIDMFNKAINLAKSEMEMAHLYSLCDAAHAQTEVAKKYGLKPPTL
Briefly: far-Western, overlay or dot blot; Gst‐tag‐free proteins applied to nitrocellulose membrane, blocked with 3% BSA in TBS‐T; C90‐HRP (1 × 500 dilution) incubated for 1 hour; ECL signal; with DMSO or increasing concentrations of the compound GMP‐1. Particulars: both partners purified.

Another assay deals with T5, PP5 (human, UniProt P53041 1-499).
T5 construct: PP5, human TPR protein, full length; Cloned into a pGEX6 vector; cDNA from the IMAGE consortium; source: E. coli BL21, purified (Gst‐trap 4B), Gst removed with PreScission protease
T5 sequence (looked up): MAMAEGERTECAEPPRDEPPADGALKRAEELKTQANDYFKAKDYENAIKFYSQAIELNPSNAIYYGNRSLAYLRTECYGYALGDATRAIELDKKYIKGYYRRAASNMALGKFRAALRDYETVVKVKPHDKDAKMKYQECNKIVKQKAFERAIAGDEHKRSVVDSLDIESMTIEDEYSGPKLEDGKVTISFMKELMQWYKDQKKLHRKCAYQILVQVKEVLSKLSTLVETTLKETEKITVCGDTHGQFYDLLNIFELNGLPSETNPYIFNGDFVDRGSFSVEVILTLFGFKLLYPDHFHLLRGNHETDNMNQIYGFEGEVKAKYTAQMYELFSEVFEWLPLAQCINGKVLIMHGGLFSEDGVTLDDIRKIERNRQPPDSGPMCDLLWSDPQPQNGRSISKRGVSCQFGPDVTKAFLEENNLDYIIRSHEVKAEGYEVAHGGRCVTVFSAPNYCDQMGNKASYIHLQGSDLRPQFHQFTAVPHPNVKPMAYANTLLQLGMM
The assay is described as above. The note with it: both partners purified.

Assay [4] concerns the target T6, FKBP51 (human, UniProt Q13451 1-457).
T6 construct: FKBP51, human TPR protein, full length; Cloned into a pGEX6 vector; cDNA from the IMAGE consortium; source: E. coli BL21, purified (Gst‐trap 4B), Gst removed with PreScission protease
T6 sequence (looked up): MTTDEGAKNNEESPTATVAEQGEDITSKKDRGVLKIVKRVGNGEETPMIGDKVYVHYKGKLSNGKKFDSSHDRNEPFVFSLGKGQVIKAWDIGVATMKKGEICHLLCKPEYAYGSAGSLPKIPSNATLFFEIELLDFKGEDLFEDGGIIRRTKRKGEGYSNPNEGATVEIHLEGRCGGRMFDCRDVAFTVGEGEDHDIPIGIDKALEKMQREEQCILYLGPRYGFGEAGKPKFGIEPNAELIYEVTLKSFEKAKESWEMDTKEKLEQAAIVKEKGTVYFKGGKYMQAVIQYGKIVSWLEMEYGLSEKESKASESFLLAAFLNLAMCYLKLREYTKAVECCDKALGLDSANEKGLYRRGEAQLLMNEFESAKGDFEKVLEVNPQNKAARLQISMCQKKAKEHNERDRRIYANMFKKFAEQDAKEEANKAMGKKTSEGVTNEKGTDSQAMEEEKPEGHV
Described as above. Particulars: both partners purified.

Assay [5] deals with T7, Tom34 (human, UniProt Q15785 1-309).
T7 construct: Tom34, human TPR protein, full length; Cloned into a pGEX6 vector; cDNA from the IMAGE consortium; source: E. coli BL21, purified (Gst‐trap 4B), Gst removed with PreScission protease
T7 sequence (looked up): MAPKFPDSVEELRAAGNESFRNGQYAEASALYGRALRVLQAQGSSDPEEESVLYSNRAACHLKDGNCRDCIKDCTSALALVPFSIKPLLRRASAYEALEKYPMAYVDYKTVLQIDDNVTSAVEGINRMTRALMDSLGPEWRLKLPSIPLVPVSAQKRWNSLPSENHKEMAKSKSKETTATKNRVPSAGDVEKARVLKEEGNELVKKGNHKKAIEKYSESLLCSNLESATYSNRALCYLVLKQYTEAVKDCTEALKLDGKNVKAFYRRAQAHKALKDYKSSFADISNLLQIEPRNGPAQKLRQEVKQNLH
Described as above. Particulars: both partners purified.

Ends that are not written are not given here.

With `COCc1cc(O)n2c(n1)nc1ccccc12` [GMP-1, 2‐(methoxymethyl)pyrimido[1,2‐a]benzimidazol‐4‐ol], the values for the IC50 at Tom34 [1], at Tom70 and on FKBP51 [2] were 180 µM, 45 µM and 150 µM, respectively.

B1: Peptide of 6 × His tag and the 10 C‐terminal amino acids of human Hsp90 alpha, coupled to HRP (C90‐HRP) (peptide)
peptide: HHHHHHDDTSRMEEVD-OH
modifications: also: coupled to horse-radish peroxidase (HRP)
notes: 10 amino acids of the C‐terminus of human Hsp90 alpha; also called Hsp90‐derived peptide; Hsp90 peptide conjugated to HRP; source: synthetic peptide (GL Biochem, Shanghai), coupled to HRP with the Lightning‐link HRP labeling kit; not shown: His6, N-terminal, kept
Regarding B1, the binding result (in assay [3]; in the assay with PP5; with FKBP51 [4]; with Tom34 [5]) was “binds” each time.
